Measurements from patent publication US20220305003A1, “METHODS OF TREATING CANCER WITH AN INHIBITOR OF ZNF827” (CHILDREN'S MEDICAL RESEARCH INSTITUTE, priority 2019, published 2022).

What was measured:
[1] = biological target: T1, replication protein A (RPA), heterotrimeric complex (human, UniProt P27694 1-616; P15927 1-270; P35244 2-121); assay: co-IP of Myc-DDK-tagged ZNF827 mutants, Western blot for RPA
T1 construct: Endogenous RPA of human cell lines, detected with an RPA2 (RPA32) antibody; also called detected through RPA32; RPA2
T1 sequence (P27694 whole entry, chain 1 of 3): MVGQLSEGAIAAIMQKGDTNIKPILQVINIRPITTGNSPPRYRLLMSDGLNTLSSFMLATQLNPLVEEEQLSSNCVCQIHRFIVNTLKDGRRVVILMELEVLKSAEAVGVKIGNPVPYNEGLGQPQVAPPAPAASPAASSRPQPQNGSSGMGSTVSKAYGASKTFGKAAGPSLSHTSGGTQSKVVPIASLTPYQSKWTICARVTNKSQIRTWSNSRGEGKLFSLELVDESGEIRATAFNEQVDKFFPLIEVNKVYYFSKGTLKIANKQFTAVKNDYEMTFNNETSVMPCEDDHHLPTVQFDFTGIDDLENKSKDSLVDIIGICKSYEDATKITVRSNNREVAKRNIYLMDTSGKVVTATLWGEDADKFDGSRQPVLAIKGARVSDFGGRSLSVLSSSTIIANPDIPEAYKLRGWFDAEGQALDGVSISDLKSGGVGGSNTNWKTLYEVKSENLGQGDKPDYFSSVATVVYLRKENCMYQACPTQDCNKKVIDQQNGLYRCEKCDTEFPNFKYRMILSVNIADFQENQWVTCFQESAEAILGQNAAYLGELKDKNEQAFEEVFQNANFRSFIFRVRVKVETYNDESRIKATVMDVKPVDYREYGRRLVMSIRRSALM
T1 sequence (P15927 whole entry, chain 2 of 3): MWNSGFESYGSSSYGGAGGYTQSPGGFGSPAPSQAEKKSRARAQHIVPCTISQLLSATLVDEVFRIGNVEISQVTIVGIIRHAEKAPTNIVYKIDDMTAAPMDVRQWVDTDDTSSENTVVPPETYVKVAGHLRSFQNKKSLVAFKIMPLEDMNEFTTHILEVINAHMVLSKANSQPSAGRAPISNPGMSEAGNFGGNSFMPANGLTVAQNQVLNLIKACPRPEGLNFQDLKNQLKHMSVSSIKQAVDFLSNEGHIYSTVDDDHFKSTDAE
T1 sequence (P35244 2-121 limits assumed, chain 3 of 3): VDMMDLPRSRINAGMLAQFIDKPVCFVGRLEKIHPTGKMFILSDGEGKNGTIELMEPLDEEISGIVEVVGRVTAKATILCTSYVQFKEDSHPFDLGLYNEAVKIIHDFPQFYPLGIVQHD
Method: (§1) Resuspended cells were lysed by incubation with rotation for 1 hour at 4° C. For Benzonase treatment to remove DNA, samples were incubated in the lysis buffer described above supplemented with 25 U Benzonase nuclease (Novagen, Merck Millipore) for 2 hours at 4° C. Lysates were subjected to centrifugation at 13,000 rpm for 40 minutes at 4° C. to remove cell debris. The supernatant was then transferred to a fresh cold low bind 1.5 mL tube for subsequent immunoprecipitation. For immunoprecipitation, protein lysates were incubated with antibody for the protein of interest (10 μg per mL lysate) or IgG control (Refer to Tables 4 and 5 for the list of antibodies used in this study), preincubated with Dynabeads Protein G, as per manufacturer's instructions (Life Technologies), with rotation overnight at 4° C. The following day, beads were washed three times in cold lysis buffer and separated on a magnetic rack. Proteins were then eluted from the beads by resuspension in 50 mM Glycine pH 2.8 and sodium dodecyl sulphate (SDS) sample buffer (0.2 M Tris-Cl, pH 6.8, 28% glycerol, 13.5% β-mercaptoethanol, 6% SDS, 6 mM EGTA, and 0.07% bromophenol blue) for 10 minutes at 70° C. and subjected to Western blot analysis, as described below, to detect various protein interactions. […]

[2] = biological target: T2, topoisomerase 2-binding protein 1 (TOPBP1) (human, UniProt Q92547 1-1522); assay: co-IP with Myc antibody, Western blot for TOPBP1
T2 construct: TOPBP1 in lysates of human cells, co-immunoprecipitated with Myc antibody
T2 sequence (Q92547 whole entry): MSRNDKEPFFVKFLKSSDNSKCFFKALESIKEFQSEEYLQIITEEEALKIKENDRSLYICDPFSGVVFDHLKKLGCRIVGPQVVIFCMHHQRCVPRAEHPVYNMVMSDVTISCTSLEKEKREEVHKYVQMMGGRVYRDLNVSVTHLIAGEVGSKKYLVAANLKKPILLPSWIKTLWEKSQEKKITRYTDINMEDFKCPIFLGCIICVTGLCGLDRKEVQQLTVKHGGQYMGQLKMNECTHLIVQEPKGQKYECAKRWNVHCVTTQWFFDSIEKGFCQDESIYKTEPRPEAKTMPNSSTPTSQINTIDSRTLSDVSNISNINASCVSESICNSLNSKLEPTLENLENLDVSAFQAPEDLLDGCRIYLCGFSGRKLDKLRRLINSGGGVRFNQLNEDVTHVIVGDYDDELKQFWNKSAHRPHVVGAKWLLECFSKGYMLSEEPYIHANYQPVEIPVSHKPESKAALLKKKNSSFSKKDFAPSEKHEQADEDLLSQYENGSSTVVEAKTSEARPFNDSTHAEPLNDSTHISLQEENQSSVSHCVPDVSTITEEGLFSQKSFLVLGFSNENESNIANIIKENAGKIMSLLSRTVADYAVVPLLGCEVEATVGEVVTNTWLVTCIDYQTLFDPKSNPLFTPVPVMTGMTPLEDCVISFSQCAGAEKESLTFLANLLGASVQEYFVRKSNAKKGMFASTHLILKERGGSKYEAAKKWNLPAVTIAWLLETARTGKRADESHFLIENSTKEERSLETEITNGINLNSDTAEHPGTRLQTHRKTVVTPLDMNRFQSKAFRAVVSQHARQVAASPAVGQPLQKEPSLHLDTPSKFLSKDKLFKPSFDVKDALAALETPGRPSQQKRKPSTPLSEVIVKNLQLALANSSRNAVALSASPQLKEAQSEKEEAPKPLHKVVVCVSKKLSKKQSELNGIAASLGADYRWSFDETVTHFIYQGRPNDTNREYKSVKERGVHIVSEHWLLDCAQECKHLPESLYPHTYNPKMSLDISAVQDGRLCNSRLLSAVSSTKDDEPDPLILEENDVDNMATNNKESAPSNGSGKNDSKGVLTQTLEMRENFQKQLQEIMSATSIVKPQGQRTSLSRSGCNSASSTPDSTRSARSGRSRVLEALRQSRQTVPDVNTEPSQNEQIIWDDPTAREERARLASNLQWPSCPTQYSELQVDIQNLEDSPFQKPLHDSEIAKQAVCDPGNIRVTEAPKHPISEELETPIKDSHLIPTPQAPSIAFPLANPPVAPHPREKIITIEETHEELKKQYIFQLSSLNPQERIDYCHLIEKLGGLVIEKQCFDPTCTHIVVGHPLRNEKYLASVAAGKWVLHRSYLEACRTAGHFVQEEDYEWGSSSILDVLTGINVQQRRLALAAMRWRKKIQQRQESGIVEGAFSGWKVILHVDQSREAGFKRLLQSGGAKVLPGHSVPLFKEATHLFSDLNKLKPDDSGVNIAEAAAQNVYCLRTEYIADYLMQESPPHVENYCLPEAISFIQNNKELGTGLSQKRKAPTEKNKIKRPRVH
Method: as §1

B1: ZNF827 mutant with no zinc fingers (ZnF1-9 deleted) (other)
chain: MPRRKQEQPKRLPSHVSRQEEAEGELSEGEHWYGNSSETPSEASYGEVQENYKLSLEDRIQEQSTSPDTSLGSTTPSSHTLELVALDSEVLRDSLQCQDHLSPGVSSLCDDDPGSNKPLSSNLRRLLEAGSLKLDAAATANGRVESPVNVGSNLSFSPPSHHAQQLSVLARKLAEKQEQNDQYTPSNRFIWNQGKWLPNSTTTCSLSPDSAILKLKAAANAVLQDKSLTRTEETMRFESFSSPFSSQSASSTLAALSKKVSERSLTPGQEHPPPASSFLSLASMTSSAALLKEVAARAAGSLLAEKSSLLPEDPLPPPPSEKKPEKVTPPPPPPPPPPPPPPPQSLELLLLPVPKGRVSKPSNSASEEESGKPQHFLRTEAKVKEEIPDPDVKGSPHLSDSACLGQQREGGGTELVGTMMTSNTPERTSQGGAGVSPLLVKEEPKEDNGLPTSFTLNAADRPATRTRPLEQKLISEEDLAANDILDYKDDDDKV
notes: also called ZnF1-9d mutant
B1: no binding [1]; no binding [2].
